In test [1] the target is T1, rat serum albumin (rat, UniProt P02770 25-608). Put plainly: binding ELISA on coated albumin, pH 6.0, panel 'Rat SA Binding at pH 6.0'. On the procedure: (§1) Briefly, ELISA was performed as follow:
(§2) Human (Sigma-Aldrich); Cynomolgus and Mouse (Abcam); Equine (Abcam); Canine (Abcam); Mouse (Sigma-Aldrich); Rabbit (Sigma-Aldrich); Porcine (Sigma-Aldrich);, and Rat (Sigma-Aldrich) serum albumin were coated overnight on 96 well plates (Corning Costar) at 1 μg/ml in PBS at the appropriate pH (pH 6.0 or 7.4). Plates were saturated using 5% Casein (Sigma-Aldrich) buffer in PBS. […] Plates were then washed and AFFIMER® proteins were detected using a biotinylated polyclonal antibody anti-Cystatin (R&D System) for 90 minutes. After washing, streptavidin-HRP (Thermo Fisher Scientific) was added and incubated for 30 minutes.
Background: ELISA stands for enzyme-linked immunosorbent assay.

Test [2] has as its target T2, human serum albumin (human, UniProt P02768 25-609).
T2 construct: mature; Bought protein; biotinylated in the Octet and HTRF assays; also called HSA; HuSA
Nature of the test: Octet biolayer interferometry, biotinylated albumin on SA sensors, pH 7.4. Here is the method:
(§3) Biotinylated antigen was captured onto SA sensors at 1 μg/ml for 600 seconds in a buffer comprising PBS-T (0.01% Tween 20)+1% casein at either pH 6.0 or 7.4. Association was carried out for 300 seconds and dissociation for 600 seconds, and regeneration was performed using 10 mM glycine pH 1.5 (GE Healthcare) for 3×5 seconds. All steps were carried out at 1000 rpm and 25° C. Purified AFFIMER® polypeptide in two-fold serial dilutions was analyzed at a starting concentration of approximately 10× K_{D value}. Kinetics analyses were carried out using the Octet data analysis software, subtracting the reference sensor (loaded with antigen), aligning the Y-axis to baseline, and using inter-step correction to align association to dissociation. Savitzky-Golay filtering was applied and the data processed. Analysis of the data was carried out with a 1:1 model, global fit, Rₘₐₓ unlinked by sensor.
(In BLI a coated tip is dipped into the sample, and binding shifts an interference pattern.)

Test [3] addresses T3, mouse serum albumin (mouse, UniProt P07724 25-608).
T3 construct: also called MSA
Described as above. On the procedure:
as §3

The target of test [4] is T4, cynomolgus serum albumin (cynomolgus).
T4 construct: also called CSA; cyno serum albumin
T4 sequence (A2V9Z4 25-608): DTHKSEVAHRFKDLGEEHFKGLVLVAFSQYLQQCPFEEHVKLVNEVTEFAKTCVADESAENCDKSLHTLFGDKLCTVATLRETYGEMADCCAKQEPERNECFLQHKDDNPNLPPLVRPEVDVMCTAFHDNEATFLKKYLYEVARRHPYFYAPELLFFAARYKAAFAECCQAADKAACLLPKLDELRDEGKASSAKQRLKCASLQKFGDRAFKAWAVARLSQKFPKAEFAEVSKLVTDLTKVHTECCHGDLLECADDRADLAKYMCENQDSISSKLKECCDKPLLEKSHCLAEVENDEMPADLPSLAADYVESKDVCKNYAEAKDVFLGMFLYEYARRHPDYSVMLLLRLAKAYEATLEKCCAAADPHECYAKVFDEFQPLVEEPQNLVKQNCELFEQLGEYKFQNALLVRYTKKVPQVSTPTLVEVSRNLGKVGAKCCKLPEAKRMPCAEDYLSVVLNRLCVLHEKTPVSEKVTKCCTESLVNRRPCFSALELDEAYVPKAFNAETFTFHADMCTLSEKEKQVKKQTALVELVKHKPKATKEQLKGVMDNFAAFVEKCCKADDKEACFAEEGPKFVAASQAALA
Described as above. On the procedure:
as §3

The target in test [5] is T2, human serum albumin. Nature of the test: BLI (Octet), biotinylated albumin on SA sensor, pH 6.0. In a few lines:
(§4)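 First, biotinylated albumin (1 μg/ml, 600 s) was immobilised on SA tips in PBS-T with 1% casein at pH 6.0 or 7.4. Next, serially diluted AFFIMER® polypeptide associated for 300 s, then dissociated for 600 s, at 25° C and 1000 rpm. Finally, sensors were regenerated with 10 mM glycine pH 1.5.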

In test [6] the target is T3, mouse serum albumin. Described as above. An outline of the steps: as §4
Test [7] addresses T4, cynomolgus serum albumin. The description is as above. In a few lines: as §4
Test [8] deals with T2, human serum albumin. Nature of the test: Octet biolayer interferometry, biotinylated albumin on SA sensors, pH 6.0. Here is the method: as §3
For test [9], the target named is T3, mouse serum albumin. The test is described as above. On the procedure: as §3
Test [10] concerns the target T4, cynomolgus serum albumin. The test is described as above. On the procedure: as §3
In test [11] the target is T2, human serum albumin. Put plainly: BLI (Octet), biotinylated albumin on SA sensor, pH 7.4. In a few lines: as §4
In test [12] the target is T3, mouse serum albumin. Described as above. An outline of the steps: as §4
The target of test [13] is T4, cynomolgus serum albumin. The test is described as above. In a few lines: as §4
The target in a further test is T5, recombinant FcRn (Homo sapiens (Human), UniProt P55899 24-297; P61769 21-119, Biotinylated (site and any tag carrying the biotin are not stated); captured on a Biotin CAPture chip.).
T5 construct: Captured on a Biotin CAPture chip; also called biotinylated FcRn (Amsbio); copies: 1 + 1
T5 sequence (P55899 24-297 limits assumed, chain 1 of 2): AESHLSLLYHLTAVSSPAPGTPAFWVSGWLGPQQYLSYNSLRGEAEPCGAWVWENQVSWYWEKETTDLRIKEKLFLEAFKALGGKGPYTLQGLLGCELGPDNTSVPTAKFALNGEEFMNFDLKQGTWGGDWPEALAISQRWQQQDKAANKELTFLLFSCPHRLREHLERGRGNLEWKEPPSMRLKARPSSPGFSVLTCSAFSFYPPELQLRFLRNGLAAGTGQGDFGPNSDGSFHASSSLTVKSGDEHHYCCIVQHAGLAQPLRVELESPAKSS
T5 sequence (P61769 21-119 limits assumed, chain 2 of 2): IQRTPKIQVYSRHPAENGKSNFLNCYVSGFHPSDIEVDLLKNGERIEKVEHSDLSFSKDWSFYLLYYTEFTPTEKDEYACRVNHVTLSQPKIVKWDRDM
Put plainly: Biacore, biotinylated FcRn on Biotin CAPture chip, PBS-T pH 6.0. Here is the method:
FcRn Biacore binding analysis was performed using Biotin CAPture chip according to the manufacturer's protocol (GE Healthcare). Briefly, Biotin CAPture reagent was run for 300 sec at a 2 μl/min flow rate over surfaces Fc1 and Fc2 followed by the capture of biotinylated FcRn (Amsbio) at 10 μg/mL with a contact time of 50 seconds, run at 10 μl/min delivered to Fc2 only. […] Surface Fc1 and Fc2 regeneration was performed according to the manufacturer's protocol.

In test [14] the target is T2, human serum albumin. Nature of the test: binding ELISA, coated albumin, pH 7.4. On the procedure:
as §1, §2

Test [15] has as its target T4, cynomolgus serum albumin. Put plainly: binding ELISA, coated albumin, pH 7.4. Here is the method:
as §1, §2

For test [16], the target named is T1, rat serum albumin. Nature of the test: binding ELISA, coated albumin, pH 7.4. Here is the method:
as §1, §2

For another test, the target named is porcine serum albumin (porcine, UniProt P08835 25-607). Put plainly: binding ELISA, coated albumin, pH 7.4. On the procedure: as §1, §2
Sequence of porcine serum albumin (P08835 25-607 limits assumed): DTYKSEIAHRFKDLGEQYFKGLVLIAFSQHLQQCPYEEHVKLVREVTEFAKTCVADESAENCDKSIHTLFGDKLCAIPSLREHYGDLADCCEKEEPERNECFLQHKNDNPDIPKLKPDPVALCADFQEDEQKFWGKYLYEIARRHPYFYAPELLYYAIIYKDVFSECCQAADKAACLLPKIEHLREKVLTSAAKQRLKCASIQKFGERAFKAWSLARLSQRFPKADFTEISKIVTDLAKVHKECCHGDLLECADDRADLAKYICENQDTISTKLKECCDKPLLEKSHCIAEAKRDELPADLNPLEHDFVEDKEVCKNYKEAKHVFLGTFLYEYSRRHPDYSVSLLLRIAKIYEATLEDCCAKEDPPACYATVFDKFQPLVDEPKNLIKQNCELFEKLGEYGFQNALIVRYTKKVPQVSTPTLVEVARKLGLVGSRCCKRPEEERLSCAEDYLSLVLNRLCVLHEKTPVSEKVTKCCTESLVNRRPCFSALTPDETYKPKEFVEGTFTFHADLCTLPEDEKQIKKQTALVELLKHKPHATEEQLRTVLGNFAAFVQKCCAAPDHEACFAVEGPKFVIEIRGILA
The target of test [17] is T2, human serum albumin. Put plainly: binding ELISA on coated albumin, pH 6.0, panel 'HSA Binding at pH 6.0'. On the procedure: as §1, §2
In another test the target is rabbit serum albumin (rabbit, UniProt P49065 25-608). Put plainly: binding ELISA on coated albumin, pH 7.4, panel 'Rabbit SA Binding at pH 7.4' (Table 6 gives NA for this pair). On the procedure:
as §1, §2

Another test concerns the target canine serum albumin (canine, UniProt P49822 25-608). Put plainly: binding ELISA on coated albumin, pH 6.0, panel 'Canine SA Binding at pH 6.0'. Here is the method: as §1, §2
Another test has as its target equine serum albumin (equine, UniProt P35747 25-607). Nature of the test: binding ELISA on coated albumin, pH 7.4, panel 'Equine SA Binding at pH 7.4' (Table 6 gives NA for this pair). Here is the method:
as §1, §2

The target in test [18] is T2, human serum albumin. Nature of the test: SPR (Biacore T200), albumin amine-coupled to CM5, Affimer analyte, pH 7.4. Here is the method: (§5) Affinities for mouse, human, and cynomolgus serum were also measured at pH 7.4 for four (4) AFFIMER® binders using surface plasmon resonance (SPR) (FIG. 5, Table 5). […] A concentration titration of AFFIMER® monomers was run as analyte at a flow rate of 30 μl/min or 60 μl/min. Fc2-1, Fc3-1 and Fc4-1 kinetic data was blank subtracted and fit to a 1:1 Langmuir binding model (BIAcore Evalution software; GE) to calculate KD values.
A general note: In SPR one partner is held on a chip, and binding of the other changes the refractive index at the surface.

Test [19] deals with T3, mouse serum albumin. Described as above. Here is the method: as §5
In test [20] the target is T4, cynomolgus serum albumin. Described as above. On the procedure: as §5
Test [21] concerns the target T4, cynomolgus serum albumin. Nature of the test: binding ELISA on coated albumin, pH 6.0, panel 'CSA Binding at pH 6.0'. On the procedure:
as §1, §2

For test [22], the target named is T2, human serum albumin. Nature of the test: SPR (Biacore), immobilised HSA, pH 7.4. On the procedure:
as §5

The target of test [23] is T2, human serum albumin. Put plainly: Biacore, immobilised HSA, pH 7.4. Here is the method: as §5
Test [24] addresses T6, mouse PD-L1-Fc tagged recombinant antigen (R&D systems) (mouse, UniProt Q9EP73 19-238).
T6 construct: Captured on a Protein A chip; not shown: Fc part of the bought protein, not described
Put plainly: SPR (Biacore), mouse PD-L1-Fc captured on Protein A chip, single cycle kinetics. On the procedure: (§6) Aantigen was captured using a Protein A chip (GE Healthcare) and the AFFIMER® ILF format was run as an analyte using single cycle kinetics titrating from a maximum concentration of 1 nM, and regenerating using 10 mM glycine pH 1.5 (GE Healthcare).

Test [25] addresses T6, mouse PD-L1-Fc tagged recombinant …. Nature of the test: Biacore single cycle kinetics, mouse PD-L1-Fc captured on Protein A chip. On the procedure: as §6
Another test concerns the target T7, mPD-L1 (mouse, UniProt Q9EP73 19-238, limits assumed).
T7 construct: May be the same reagent as the mouse PD-L1-Fc of the Biacore run
Put plainly: competition ELISA: mPD-L1 pre-incubated with the AFFIMER polypeptide and added to coated mPD-1; blocked ligand mPD-1. Here is the method:
(§7) Briefly, PD-1 was coated overnight on the plate at 1 μg/ml in carbonate buffer. Then plates were saturated using 5% Casein/PBS buffer. […] After saturation, the mix was added to the plates and incubated for 90 minutes. Plates were then washed and the detection polyclonal antibody, biotinylated anti-PD-L1, was added. After washing the plates, streptavidin-HRP was added for 30 minutes. After a final wash, development of the reaction was performed using TMB (Pierce) and the plates were read using a plate reader at 450 nm (FIG. 26C).

The target of test [26] is T3, mouse serum albumin. Nature of the test: binding ELISA on coated MSA, panel title 'Affimer binding to MSA, pH 7' (legend: pH 7.4). Here is the method: as §2, §7

T6 sequence (Q9EP73 19-238 limits assumed): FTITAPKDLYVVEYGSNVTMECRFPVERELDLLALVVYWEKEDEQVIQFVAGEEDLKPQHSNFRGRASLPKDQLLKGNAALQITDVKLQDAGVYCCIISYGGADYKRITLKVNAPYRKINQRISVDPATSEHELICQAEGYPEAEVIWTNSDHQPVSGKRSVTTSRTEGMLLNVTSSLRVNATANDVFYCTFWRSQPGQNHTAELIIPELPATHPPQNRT
T3 sequence (P07724 25-608 limits assumed): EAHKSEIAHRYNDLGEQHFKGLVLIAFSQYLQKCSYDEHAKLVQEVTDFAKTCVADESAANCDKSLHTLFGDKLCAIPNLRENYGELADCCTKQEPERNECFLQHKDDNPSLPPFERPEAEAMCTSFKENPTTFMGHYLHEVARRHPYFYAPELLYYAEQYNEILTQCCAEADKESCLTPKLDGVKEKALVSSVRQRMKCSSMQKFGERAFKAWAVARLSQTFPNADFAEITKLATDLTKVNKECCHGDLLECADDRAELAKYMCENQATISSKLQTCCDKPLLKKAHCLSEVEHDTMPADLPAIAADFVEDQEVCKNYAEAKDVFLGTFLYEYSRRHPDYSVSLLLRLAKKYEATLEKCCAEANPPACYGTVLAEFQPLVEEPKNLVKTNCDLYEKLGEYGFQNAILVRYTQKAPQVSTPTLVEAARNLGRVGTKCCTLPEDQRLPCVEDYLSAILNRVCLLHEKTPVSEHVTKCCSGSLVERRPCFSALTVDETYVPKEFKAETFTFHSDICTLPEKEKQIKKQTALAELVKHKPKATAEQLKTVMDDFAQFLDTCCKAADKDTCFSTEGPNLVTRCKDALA
T1 sequence (P02770 25-608 limits assumed): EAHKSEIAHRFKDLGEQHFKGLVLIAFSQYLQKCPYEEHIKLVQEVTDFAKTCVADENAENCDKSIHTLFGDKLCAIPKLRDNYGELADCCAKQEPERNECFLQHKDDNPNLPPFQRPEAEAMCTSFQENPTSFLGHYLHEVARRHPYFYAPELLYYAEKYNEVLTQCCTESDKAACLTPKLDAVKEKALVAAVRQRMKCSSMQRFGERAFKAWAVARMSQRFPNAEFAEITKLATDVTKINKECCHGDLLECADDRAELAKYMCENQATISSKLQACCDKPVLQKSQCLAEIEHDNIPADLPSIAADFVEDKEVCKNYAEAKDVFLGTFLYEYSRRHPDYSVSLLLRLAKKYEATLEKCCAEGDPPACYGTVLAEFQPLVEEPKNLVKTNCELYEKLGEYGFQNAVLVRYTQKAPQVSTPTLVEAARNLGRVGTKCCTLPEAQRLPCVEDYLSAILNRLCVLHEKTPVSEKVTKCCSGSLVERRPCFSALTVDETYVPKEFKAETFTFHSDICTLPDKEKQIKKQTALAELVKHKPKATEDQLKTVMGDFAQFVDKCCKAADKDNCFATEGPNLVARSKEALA
T7 sequence (Q9EP73 19-238 limits assumed): as the sequence (Q9EP73 19-238 limits assumed) above
Sequence of equine serum albumin (P35747 25-607 limits assumed): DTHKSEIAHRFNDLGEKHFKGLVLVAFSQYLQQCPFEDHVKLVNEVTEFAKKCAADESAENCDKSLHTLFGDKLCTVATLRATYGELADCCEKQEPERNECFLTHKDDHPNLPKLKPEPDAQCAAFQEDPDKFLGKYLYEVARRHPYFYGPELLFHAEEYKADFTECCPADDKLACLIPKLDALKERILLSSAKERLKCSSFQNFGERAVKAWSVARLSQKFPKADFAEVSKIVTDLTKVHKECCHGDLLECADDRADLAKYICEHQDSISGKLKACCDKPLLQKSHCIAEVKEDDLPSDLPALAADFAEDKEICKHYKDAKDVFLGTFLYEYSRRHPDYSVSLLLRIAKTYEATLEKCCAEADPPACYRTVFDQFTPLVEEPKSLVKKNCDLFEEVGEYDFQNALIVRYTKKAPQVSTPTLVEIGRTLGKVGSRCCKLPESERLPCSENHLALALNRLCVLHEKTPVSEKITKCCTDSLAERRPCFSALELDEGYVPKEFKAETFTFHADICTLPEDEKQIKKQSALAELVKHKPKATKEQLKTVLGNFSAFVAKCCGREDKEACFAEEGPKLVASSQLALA
Sequence of canine serum albumin (P49822 25-608 limits assumed): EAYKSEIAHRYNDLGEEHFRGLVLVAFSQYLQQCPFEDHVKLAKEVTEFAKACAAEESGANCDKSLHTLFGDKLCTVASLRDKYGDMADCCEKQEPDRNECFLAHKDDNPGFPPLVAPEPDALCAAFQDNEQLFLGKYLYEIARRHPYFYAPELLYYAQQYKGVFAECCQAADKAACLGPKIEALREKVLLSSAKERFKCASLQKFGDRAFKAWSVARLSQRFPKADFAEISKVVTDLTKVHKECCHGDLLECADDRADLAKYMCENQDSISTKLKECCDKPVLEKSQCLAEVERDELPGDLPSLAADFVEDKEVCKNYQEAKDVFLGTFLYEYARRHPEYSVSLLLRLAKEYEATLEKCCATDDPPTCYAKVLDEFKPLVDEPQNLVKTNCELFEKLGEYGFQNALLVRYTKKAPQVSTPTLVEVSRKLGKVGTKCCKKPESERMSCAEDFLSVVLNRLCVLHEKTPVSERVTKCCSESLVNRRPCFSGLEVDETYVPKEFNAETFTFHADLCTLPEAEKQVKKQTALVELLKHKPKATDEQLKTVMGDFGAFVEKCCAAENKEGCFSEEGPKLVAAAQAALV
Sequence of rabbit serum albumin (P49065 25-608 limits assumed): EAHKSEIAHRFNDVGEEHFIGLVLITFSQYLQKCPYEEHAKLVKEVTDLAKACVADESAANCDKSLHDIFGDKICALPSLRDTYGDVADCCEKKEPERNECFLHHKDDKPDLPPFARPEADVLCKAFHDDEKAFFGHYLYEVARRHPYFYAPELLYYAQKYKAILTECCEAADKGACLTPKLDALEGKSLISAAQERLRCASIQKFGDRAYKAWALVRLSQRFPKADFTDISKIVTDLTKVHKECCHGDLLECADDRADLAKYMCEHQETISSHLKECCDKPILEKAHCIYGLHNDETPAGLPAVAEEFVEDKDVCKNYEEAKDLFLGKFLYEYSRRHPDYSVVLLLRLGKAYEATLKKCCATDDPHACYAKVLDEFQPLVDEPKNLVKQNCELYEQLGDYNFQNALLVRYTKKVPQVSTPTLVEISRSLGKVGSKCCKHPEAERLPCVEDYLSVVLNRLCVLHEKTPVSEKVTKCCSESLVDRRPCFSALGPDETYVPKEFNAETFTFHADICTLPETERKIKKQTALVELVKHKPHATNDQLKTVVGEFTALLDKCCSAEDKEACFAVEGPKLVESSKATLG

B1: HSA-20 (designed binder)
chain: MIPRGLSEAKPATPEIQEIVDKVKPQLEEKTNETYGKLEAVQYKTQVLAGYWAAKWPGSTNYYIKVRAGDNKYMHLKVFNGPFPNTSYDLQADRVLTGYQVDKNKDDELTGFHHHHHH
As for B1, the EC50 (read off the curve) (as a rule, the concentration giving half of the maximal effect) with rat serum albumin [1] was ~1 nM; with human serum albumin [17], ~7 nM; with canine serum albumin it was ~20 nM; with cynomolgus serum albumin [21] it was ~20 nM. Further, the koff (commonly the rate constant with which the complex falls apart) was 0.00517 s⁻¹ in the test with human serum albumin [2]; 0.0509 s⁻¹ in the test with mouse serum albumin [3]; 0.0148 s⁻¹ with cynomolgus serum albumin [4]; 0.00501 s⁻¹ in the test with human serum albumin [8]; 0.0596 s⁻¹ with mouse serum albumin [9]; 0.00611 s⁻¹ in the test with cynomolgus serum albumin [10]. Also, the koff with human serum albumin [18] stood at 0.0183 s⁻¹; in the test with mouse serum albumin [19], 0.0981 s⁻¹; with cynomolgus serum albumin [20], 0.0199 s⁻¹. Further, the kon (in general, the second-order rate constant of association) with human serum albumin [2] worked out at 128000 M⁻¹ s⁻¹; with mouse serum albumin [3], 81800 M⁻¹ s⁻¹; in the test with cynomolgus serum albumin [4], 69600 M⁻¹ s⁻¹; with human serum albumin [8], 214000 M⁻¹ s⁻¹; in the test with mouse serum albumin [9] it was 117000 M⁻¹ s⁻¹; in the test with cynomolgus serum albumin [10] it was 45700 M⁻¹ s⁻¹. Besides, the kon is 52200 M⁻¹ s⁻¹ with human serum albumin [18], 115000 M⁻¹ s⁻¹ with mouse serum albumin [19] and 47600 M⁻¹ s⁻¹ with cynomolgus serum albumin [20]. In addition, the Kd (commonly the concentration at which binding is half-saturated) with human serum albumin [5] was 23.4 nM; with mouse serum albumin [6], 511 nM; with cynomolgus serum albumin [7], 133 nM; with human serum albumin [11], 40.5 nM; with mouse serum albumin [12] it was 622 nM; with cynomolgus serum albumin [13], 213 nM. Also, the Kd in the test with human serum albumin [18] was 350 nM; in the test with mouse serum albumin [19], 855 nM; with cynomolgus serum albumin [20] it was 419 nM. Further, the binding result with recombinant FcRn is “no binding”; with rabbit serum albumin it was “binds”; with equine serum albumin it was “binds”. The EC50 – broadly, the midpoint of the concentration-response curve – stood at 18.9 nM with human serum albumin [14], 9.55 nM in the test with cynomolgus serum albumin [15], 16.1 nM with rat serum albumin [16] and 894 nM with porcine serum albumin.

B2: HSA-41 CQ (designed binder)
chain: MIPRGLSEAKPATPEIQEIVDKVKPQLEEKTNETYGKLEAVQYKTQVLANFFQRRWPGSTNYYIKVRAGDNKYMHLKVFNGPWKFRNTDRGADRVLTGYQVDKNKDDELTGFAAAGGRAEQKLISEEDLGCAENLYFQGGAAGHHHHHH
notes: Purified in the presence of 5 mM TCEP; also called HSA-41 free C-terminal cysteine format (CQ); HAS-41 CQ
On to B2, for which the Kd with human serum albumin [22] was ~3 nM. Also, in the test with human serum albumin [23], binding was characterised by a dissociation constant (Kd) of 3.21 nM, the koff was found to be 0.00663 s⁻¹ and the kon was determined as 2.07e+06 M⁻¹ s⁻¹.

B3: AVA04-182 XT20 (designed binder)
chain: MIPRGLSEAKPATPEIQEIVDKVKPQLEEKTNETYGKLEAVQYKTQVLAFALPEFEYMSTNYYIKVRAGDNKYMHLKVFNGPPMIRRKNEVADRVLTGYQVDKNKDDELTGFAEAAAKEAAAKEAAAKEAAAKEAAAKEAAAKMIPRGLSEAKPATPEIQEIVDKVKPQLEEKTNETYGKLEAVQYKTQVLAFALPEFEYMSTNYYIKVRAGDNKYMHLKVFNGPPMIRRKNEVADRVLTGYQVDKNKDDELTGFAEAAAKEAAAKEAAAKEAAAKEAAAKEAAAKMIPRGLSEAKPATPEIQEIVDKVKPQLEEKTNETYGKLEAVQYKTQVLANFFQRRWPGSTNYYIKVRAGDNKYMHLKVFNGPWKFRNTDRGADRVLTGYQVDKNKDDELTGFHHHHHH
As to B3, in [24], the Kd came out at 0.0906 nM. In addition, in test [25], the koff was 0.0025 s⁻¹ and the kon amounted to 2.76e+07 M⁻¹ s⁻¹. The IC50 (as a rule, the midpoint of a concentration-inhibition curve) in the test with mPD-L1 was 135 nM. In the test with mouse serum albumin [26], the binding result is recorded as “binds”.
